Test results taken from patent US6946130 (GlaxoSmithKline, dated 2005).

Legend:
[1] = target: T1, human interleukin 5 (recombinant human IL-5, expressed in Drosophila Schneider 2 cells) (human, UniProt P05113 20-134); assay: optical biosensor
T1 construct: also called hIL-5

[2] = target: T1, human interleukin 5 (recombinant human …); assay: IL-5R alpha binding inhibition assay (125I-IL-5, Drosophila membranes)
Experimental: Assays with *Drosophila* membranes containing receptor were performed in MultiscreenGV™ plates (Millipore Corp., Bedford, Mass.) using *Drosophila* tissue culture medium M3 (Lindquist et al., *Drosophila Inf. Serv.*, 58: 163 (1982)) containing 25 mM HEPES buffer pH 7.2 and 0.1% BSA (Binding Buffer). Wells were pre-blocked with 0.1 ml binding buffer. […] After 20 minutes incubation at room temperature, 25 ul of the membrane extract of *Drosophila* S2 cells expressing the α-chain of the human IL5R was added to the wells. After 1 hour further incubation the membranes were collected by vacuum filtration and washed 3× with binding buffer. Filters were dried and counted.
The Fd and κ cDNAs of mAb (2B6) were isolated by PCR using the conditions described above. The gel-purified fragments were subcloned into the pMKFabGene3 vector which had been modified to include the hexa-His sequence 3' of the gene III cDNA, resulting in the plasmid pMKFabGene3H. A functional, IL-5 binding Fab clone containing the 2B6 heavy and light chains was identified by a colony lift assay. Upon removal gene III via Nhe I/SpeI I digestion and self-ligation the heavy chain was fused in frame to the hexa-His, allowing purification as described above.

B1: recombinant Fab containing the 2B6 heavy and light chains (Fd fused to hexa-His) (Fab)
heavy (part 1 of 2): QVQLKESGPGLVAPSQSLSITCTVSGFSLTSYSVHWVRQPPGKGLEWLGVIWASGGTDYNSALMSRLSISKDNSKSQVFLKLNSLQTDDTAMYYCARDPPSSLLRLDYWGQGTTLTVSS
heavy (part 2 of 2): HHHHHH
light: DIVMTQSPSSLSVSAGEKVTMSCKSSQSLLNSGNQKNYLAWYQQKPGQPPKLLIYGASTRESGVPDRFTGSGSGTDFTLSISSVQAEDLAVYYCQNVHSFPFTFGSGTELEIK
notes: Expressed in E. coli from pMKFabGene3H after removal of gene III; also called Fab fragment from 2B6; 2B6 Fab; not shown: murine CH1 (rest of the 2B6 Fd); murine kappa constant region
B1 was tested, and the Kd [1] was roughly 90 pM and the IC50 [2] was roughly 7.5 µg/mL.
